{
  "source": "paper PMC9205905",
  "about": "“Core and rod structures of a thermophilic cyanobacterial light-harvesting phycobilisome” (Nature Communications, 2022)",
  "target": "the molecule itself",
  "test": "cryo-EM structure; PC rods dissociated from intact PBSs on the grid by dilution with 10 mM phosphate buffer (phosphate below 0.5 M); single-particle cryo-EM, no symmetry, 4.2 Å",
  "data": [
    {"protein": "PC monomer (CpcA/CpcB αβ monomer) (complex, phycocyanobilin (PCB) at residue 84 (α84) | phycocyanobilin (PCB) at residues 84 and 155 (β84, β155)) chain 1: not shown chain 2: MLDAFAKVVAQADARGEFLTNAQFDALSNLVKEGNKRLDAVNRITSNASTIVANAARALFAEQPQLIQPGGNAYTNRRMAACLRDMEIILRYVTYAILAGDSSVLDDRCLNGLRETYQALGTPGSSVAVAIQKMKDAAIAIANDPNGITPGDCSALMSEIAGYFDRAAAAVA", "values": [
      {"measurement": "stoichiometry N", "result": 6}
    ]}
  ]
}
